For orientation: EC50 means the concentration at which the effect is half-maximal. By Kd is commonly meant the concentration at which binding is half-saturated. As usually defined, the koff is the first-order rate constant of dissociation. Broadly, the kon is the rate constant with which the complex forms.

The target in test [1] is T1, human PTK7 on cells (tumor cells endogenously expressing PTK7); CHO-hPTK7, CHO-S-hPTK7 and 293T-hPTK7 … (human, UniProt Q13308 31-1070).
T1 sequence (looked up): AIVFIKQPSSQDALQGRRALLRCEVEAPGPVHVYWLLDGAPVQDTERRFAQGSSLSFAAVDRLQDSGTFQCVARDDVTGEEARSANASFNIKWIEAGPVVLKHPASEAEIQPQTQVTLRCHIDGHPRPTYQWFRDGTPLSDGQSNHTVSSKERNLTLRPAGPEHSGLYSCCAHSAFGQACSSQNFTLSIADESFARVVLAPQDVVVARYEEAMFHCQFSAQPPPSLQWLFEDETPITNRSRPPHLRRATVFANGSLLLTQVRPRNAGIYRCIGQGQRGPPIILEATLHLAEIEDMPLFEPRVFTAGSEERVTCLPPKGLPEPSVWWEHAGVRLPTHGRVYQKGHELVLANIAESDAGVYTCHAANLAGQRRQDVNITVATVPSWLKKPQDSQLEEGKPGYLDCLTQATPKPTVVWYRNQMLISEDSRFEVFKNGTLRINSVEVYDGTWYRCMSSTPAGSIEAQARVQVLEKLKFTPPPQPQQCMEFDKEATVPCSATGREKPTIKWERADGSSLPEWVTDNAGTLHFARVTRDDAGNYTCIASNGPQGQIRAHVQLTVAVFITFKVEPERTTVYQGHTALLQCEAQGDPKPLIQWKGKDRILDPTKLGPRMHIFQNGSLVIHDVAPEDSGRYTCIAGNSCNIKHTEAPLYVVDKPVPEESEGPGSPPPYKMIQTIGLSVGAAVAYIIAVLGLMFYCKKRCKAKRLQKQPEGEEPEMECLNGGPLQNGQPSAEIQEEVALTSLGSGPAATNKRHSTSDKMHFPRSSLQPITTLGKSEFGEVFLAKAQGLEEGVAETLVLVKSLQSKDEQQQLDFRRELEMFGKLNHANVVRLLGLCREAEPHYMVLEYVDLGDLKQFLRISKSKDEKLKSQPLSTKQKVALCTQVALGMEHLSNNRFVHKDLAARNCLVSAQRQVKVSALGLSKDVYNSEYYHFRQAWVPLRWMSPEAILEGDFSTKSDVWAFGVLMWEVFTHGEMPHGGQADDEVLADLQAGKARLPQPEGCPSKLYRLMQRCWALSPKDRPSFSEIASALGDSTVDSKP
In words: cell-based or functional assay.

The target in test [2] is T1, human PTK7 on cells (tumor cells …). The test is described as follows: flow cytometry on CHO-hPTK7 overexpression cells. The text has this: (§1) A flow cytometer (Beckman, Cytoflex) was used for detecting the affinity of the anti-human PTK7 chimeric and humanized antibodies with human non-small cell lung cancer cells H1299, human lung adenocarcinoma cells H1975, human breast cancer cells T47D, human ovarian cancer cells OVCAR-3 (all purchased from NANJING COBIOER BIOSCIENCES CO., LTD) and CHO-hPTK7 overexpression cells.
(§2) The adherent cells were digested by using a pancreatin (Gibco) solution; a proper amount of cells were counted and taken, washed twice by using 1×PBS, and re-suspended in a 1% BSA solution; and then the cells were transferred into a 96-well deep plate at a density of 50 μl/well; a candidate antibody was diluted by using 1% BSA, then 50 μl of diluted antibody was added into the deep plate containing the cells, and incubated for 40 min at 4° C.; the cells were washed twice by using PBS, then 50 μl of diluted secondary antibody was added into each well, uniformly mixed, and incubated for 30 min at 4° C.; and the cells were washed twice by using PBS, then re-suspended in 400 μl of PBS, and subjected to examination by flow cytometer.

Test [3] concerns the target T2, monkey PTK7 protein (extracellular sequence of monkey PTK7 with C-terminal 6×His tag) (monkey).
T2 chain: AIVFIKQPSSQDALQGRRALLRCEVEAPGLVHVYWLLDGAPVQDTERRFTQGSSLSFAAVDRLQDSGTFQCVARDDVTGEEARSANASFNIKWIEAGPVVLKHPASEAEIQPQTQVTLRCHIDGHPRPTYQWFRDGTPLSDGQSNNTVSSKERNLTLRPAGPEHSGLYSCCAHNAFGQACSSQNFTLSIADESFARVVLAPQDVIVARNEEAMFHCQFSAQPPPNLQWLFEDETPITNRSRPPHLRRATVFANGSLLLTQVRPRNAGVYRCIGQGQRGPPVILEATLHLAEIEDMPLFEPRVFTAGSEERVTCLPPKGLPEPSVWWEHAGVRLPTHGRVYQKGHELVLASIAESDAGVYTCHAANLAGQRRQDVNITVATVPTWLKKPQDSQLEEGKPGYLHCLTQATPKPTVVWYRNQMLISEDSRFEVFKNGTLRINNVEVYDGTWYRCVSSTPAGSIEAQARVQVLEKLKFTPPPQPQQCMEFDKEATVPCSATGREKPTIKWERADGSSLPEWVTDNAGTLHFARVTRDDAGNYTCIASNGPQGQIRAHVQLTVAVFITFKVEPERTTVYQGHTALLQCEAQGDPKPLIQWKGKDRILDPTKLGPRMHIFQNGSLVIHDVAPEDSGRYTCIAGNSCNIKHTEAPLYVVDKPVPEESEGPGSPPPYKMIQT
The test is described as follows: BLI (ForteBio), antibody on Protein A sensor, monkey PTK7 protein in solution. The text has this:
(§3) The dynamic affinity of the control Hu24 and candidate antibodies 64A10HZ, 101A6HZ, 4E12HZ and 19C2HZ with human PTK7-His was detected by using ForteBio (Pall life sciences).
ELISA and ForteBio were adopted to detect binding of the anti-human PTK7 chimeric and humanized antibodies to the monkey, mouse and rat PTK7 proteins.
Background: Biolayer interferometry detects binding as a change in optical thickness at a sensor tip.

In test [4] the target is T3, human PTK7 protein (extracellular sequence of human PTK7 with C-terminal 6×His tag) (human, UniProt Q13308 31-704).
T3 construct: extracellular domain; Expressed transiently in HEK293 cells; also called human PTK7-His; human PTK7-His protein
T3 sequence: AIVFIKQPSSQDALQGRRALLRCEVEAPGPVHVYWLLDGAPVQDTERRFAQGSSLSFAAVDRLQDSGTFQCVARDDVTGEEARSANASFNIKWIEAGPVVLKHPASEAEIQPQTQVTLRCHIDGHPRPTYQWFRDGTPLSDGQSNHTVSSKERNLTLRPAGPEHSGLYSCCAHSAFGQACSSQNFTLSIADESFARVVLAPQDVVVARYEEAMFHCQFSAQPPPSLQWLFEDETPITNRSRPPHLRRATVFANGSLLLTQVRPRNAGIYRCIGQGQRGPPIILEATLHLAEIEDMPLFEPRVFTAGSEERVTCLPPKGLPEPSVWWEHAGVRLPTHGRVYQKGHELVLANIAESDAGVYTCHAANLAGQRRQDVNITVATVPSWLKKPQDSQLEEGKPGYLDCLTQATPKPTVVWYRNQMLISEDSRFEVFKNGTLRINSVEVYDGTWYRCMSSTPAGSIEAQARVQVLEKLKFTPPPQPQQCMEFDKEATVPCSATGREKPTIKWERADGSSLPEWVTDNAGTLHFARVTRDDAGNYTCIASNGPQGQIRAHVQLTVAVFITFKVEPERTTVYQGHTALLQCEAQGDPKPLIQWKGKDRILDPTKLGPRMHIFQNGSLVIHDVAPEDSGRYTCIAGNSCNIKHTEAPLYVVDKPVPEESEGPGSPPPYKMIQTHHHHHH
In words: BLI (ForteBio), antibody on Protein A sensor, human PTK7-His 200-3.125 nM, 1:1 global fit.
Text: as §3

Test [5] deals with T1, human PTK7 on cells (tumor cells …). The test is described as follows: competition flow cytometry on 293T-hPTK7 cells, streptavidin-PE; competitor: biotin-labelled Hu24.
For test [6] the target is unchanged. The test is described as follows: competition flow cytometry on 293T-hPTK7 cells, streptavidin-PE; competitor: biotin-labelled 19C2HZ. (In general: A flow cytometer gives signals particle by particle.)
The target is the same in test [7]. The test is described as follows: competition flow cytometry on 293T-hPTK7 cells, streptavidin-PE; competitor: biotin-labelled 4E12HZ.
The target is the same in test [8]. The test is described as follows: flow cytometry on OVCAR-3 cells.
Text: as §1, §2

B1: 19C2HZ (anti-human PTK7 humanized antibody) (antibody, human IgG1, kappa, V domains shown)
VH: QVTLKESGPTLVKPTQTLTLTCTFSGFSLSTSGMGINWIRQPPGKALEWLALIWWDDDKYYNPSLKNRLTITKDTSKNQVVLTMTNMDPVDTATYYCARSLITTAPSDYWGQGTLVTVSS
VL: DIQMTQSPSSLSASVGDRVTITCKASQNVGTAITWYQQRPGKAPKLLIYSASNRYTGVPSRFSGSGSGTDFTLTISNLQPEDLATYFCLQYSDYPLTFGQGTRLEIKR
notes: Human IgG1 heavy chain constant region and human Kappa light chain constant region
For B1, the “FADU cell endocytosis activity, EC50” value in test [1] worked out at 0.134 µg/mL. The EC50 in test [2] was 0.201 µg/mL. The figures for the Kd in test [3] and in test [4] were 0.092 nM and 3.7 nM, respectively. Further, the koff in test [4] was 0.000728 s⁻¹. The kon in test [4] was 197000 M⁻¹ s⁻¹. Moreover, the figures for the “IC50 (read off the curve)” value in test [5] and in test [6] were roughly 0.6 µg/mL and roughly 0.8 µg/mL, respectively.

B2: 4E12HZ (anti-human PTK7 humanized antibody) (antibody, human IgG1, kappa, V domains shown)
VH: QVQLVQSGAEVKRPGASVKVSCKTSGYTFTDYAMHWVRQAPGKGLEWIGVISTYYGNVSYNQKFKGRVTMTRDTSTSTVYMELSSLTSEDTAIYYCARGFAYWGQGTLVTVSS
VL: DIVITQTELSLPVTPGERASISCRSSKSLQKKDGKTYLNWFLQKPGQSPQLLIYLMSTRASGVSDRFSGSGSGTDFTLKISRVEAEDVGVYYCQQLVEYPFTFGQGTKLEIKR
notes: as for B1
For the molecule B2, the “FADU cell endocytosis activity, EC50” value in test [1] was found to be 0.147 µg/mL. A half-maximal response in test [2] (EC50) required 0.0414 µg/mL. Moreover, the Kd in test [3] stood at 9.68 nM. In test [4], this molecule returned a Kd of 22 nM, a koff of 0.00534 s⁻¹ and a kon of 243000 M⁻¹ s⁻¹. In addition, the “IC50 (read off the curve)” value in test [7] was roughly 0.1 µg/mL.

B3: 64A10HZ05 (VH3+VL2) (anti-human PTK7 humanized antibody) (antibody, human IgG1, kappa, V domains shown)
VH: QVQLQESGPGLVKPSETLSLTCTVSGFSLTSYGVYWVRQPPGKGLEWLGVIWTSGNTNYNPSLKSRLTISKDNSKNQVSLKLSSVTAADTAVYYCVKHDGGNYVGVMNYWGQGTLVTVSS
VL: DIQMTQSPSSLSASVGDRVTITCRASQSISDYLHWYQQKPGKAPKLLIKYASQSISGVPSRFSGSGSGSDFTLTISSLQPEDFATYYCQNGHSFPPTFGGGTKVEIKR
notes: as for B1
On to B3, for which the EC50 in test [8] was determined as 0.0397 µg/mL.
